# B1: HLA-G-0037 (antibody, V domains shown)
# VH: QVQLKESGPGLVQPSQTLSLTCSVSGFSLTTYSVSWVRQPPGKGLEWIGAIWSGGSTDYNSALKSRLRISRDTSKSQVLLKMNSLQTEDRAMYFCVRMNNKFGYWYFDLWGPGTMVTVSS
# VL: DTVLTQSPTLAVSPGEKITISCRASETVSTMLHWYQQKPGQQPKLLISLASHLESGVPARFTGSGSGTDFTLTIDPVEADDTATYYCQQTWNDPLTFGSGTKLEIK
# B2: HLA-G-0032 (antibody, V domains shown)
# VH: QVQLQQSGAELVKPGSSVKISCKASGYSFPSYDMHWIKQQPGNGLEWIGWIYPGNGNTKYNQKFNGKASLTADKSSSTAYMQLSSLTSEDSAVYFCAKPTVATRYNWFAYWGQGTLVTVSS
# VL: QIVLTQSPALMSASPGEKVTMTCSASSSVNYMHWYQQKPRSSPKPWIYLTSNLASGVPARFSGSGSGTSYSLTISTMEAEDAATYYCQQWSSNLPITFGSGTKLEIK
# B3: HLA-G-0033 (antibody, V domains shown)
# VH: EVQLVETGGGLVQSGRSLKLSCVASGFTFNDYWMTWTRQAPGKGLEWVASITNSGGRTYYLDSVRGRFTISRDDAQNTLYLQMNSLRSEDTATYYCTKERIYLTAYWFFDFWGPGTMVTVSS
# VL: DTILTQSPALAVSPGERVTISCRASESVSTLIHWYQQKPGQRPKLLIYLASHLESGVPARFSGSGSGTDFTLTIDPVEADDTATYYCQQSWNEPRTFGGGTKLELK
# Biological target: T1, recombinant soluble human HLA-G β2M MHC class I complex, dimer (human)
# T1 construct: also called HLA-G Dimer; fraction A9
# Test: blocking ELISA, Fc tagged ILT2 coated, 100 nM antibody, soluble HLA-G dimer
# Protocol: (§1) The ELISA was set up by coating the Fc tagged ILT2 and ILT4 respectively to Maxisorp microtiter plates. After incubation and washing steps, the respective antibodies were added at a concentration of 100nM. Soluble His tagged monomeric, dimeric or trimeric HLA-G was added to the wells. After incubation and washing steps, detection of bound receptor was carried out by anti-His-antibody-POD conjugates.
row,Binder,% inh. ILT2
1,B1,96%
2,B2,95%
3,B3,95%

# Biological target: T2, recombinant soluble human HLA-G β2M MHC class I complex, trimer (human)
# T2 construct: also called HLA-G Trimer; fraction A8
# Test: blocking ELISA, Fc tagged ILT2 coated, 100 nM antibody, soluble HLA-G trimer
# Protocol: as §1
row,Binder,% inh. ILT2
1,B1,93%
2,B2,93%
3,B3,93%

# Biological target: T1, recombinant soluble human HLA-G β2M MHC …
# Test: ELISA, HLA-G dimer coated on plate
# Protocol: (§2) The above table summarizes the binding of different rat anti-human HLA-G monoclonal antibodies, derived from wt protein IMS. Shown are the relative EC50 values [ng/ml] of the respective binding to rec. wt monomeric, dimeric and trimeric HLA-G proteins as assessed by ELISA. The ELISA was set up by coating the biotinylated wt HLA-G antigen to strepdavidin plates. After incubation and washing steps, the respective antibodies were bound in a concentration range from 10-0 μg in 1:2 dilution steps. Detection of bound antibodies was carried out by anti-Fc-antibody-POD conjugates. EC50 values were determined from the resulting binding curves at the antibody concentrations generating the half-maximal signal. In case of the non-biotinylated HLA-G dimer and trimer antigens, immobilization was carried out by random coating on assay plates.
row,Binder,EC50
1,B1,2.01 nM
2,B2,1.36 nM
3,B3,1.98 nM

# Biological target: T2, recombinant soluble human HLA-G β2M MHC …
# Test: blocking ELISA, Fc tagged ILT4 coated, 100 nM antibody, soluble HLA-G trimer
# Protocol: as §1
row,Binder,% inh. ILT4
1,B1,67%
2,B2,68%
3,B3,71%

# Biological target: T3, recombinant soluble human HLA-G β2M MHC class I complex, monomer (human)
# T3 construct: His tagged; also called HLA-G-0003
# Test: ELISA, biotinylated wt HLA-G monomer on streptavidin plate
# Protocol: Streptavidin coated plates (Nunc, MicroCoat #11974998001) were coated with 25 μl/well biotinylated human wt HLA-G at a concentration of 250 ng/ml and incubated at 4° C. overnight. After washing (3×90 μl/well with PBST-buffer) 25 μl anti-HLA-G samples (1:3 dilution in OSEP buffer) or reference antibody (G233, Thermo/Pierce #MA1-19449, 500 ng/ml) were added and incubated 1 h at RT. After washing (3×90 μl/well with PBST-buffer) 25 μl/well goat-anti-mouse H+L-POD (Biorad #170-6561, 1:2000 in OSEP) or donkey-anti-rabbit IgG POD (GE #NA9340V, 1:5000 in OSE) was added and incubated at RT for 1 h on shaker. For detection of rat IgGs a mixture of goat-anti-rat IgG1-POD (Bethyl #A110-106P), goat-anti-rat IgG2a-POD (Bethyl #A110-109P) and goat-anti-rat IgG2b-POD (Bethyl #A110-111P) 1:10000 in OSEP was added and incubated at RT for 1 h on shaker. After washing (6×90 μl/well with PBST-buffer) 25 μl/well TMB substrate (Roche, 11835033001) was added and incubated until OD 2-3. Measurement took place on a Tecan Safire 2 instrument at 370/492 nm.
# as §2
row,Binder,EC50
1,B1,4.95 nM
2,B2,3.59 nM
3,B3,4.94 nM

# Biological target: T3, recombinant soluble human HLA-G β2M MHC …
# Test: SPR (Biacore T200), antibody captured via anti-Fc, HLA-G complex injected, 25 C, 1:1 fit
# Protocol: Binding kinetics of anti-HLA-G antibodies to human HLA-G, human HLA-G degrafted and human HLA-A2 were investigated by surface plasmon resonance using a BIACORE T200 instrument (GE Healthcare). All experiments were performed at 25° C. using PBS Buffer (pH 7.4+0.05% Tween20) as running buffer and PBS Buffer (+0.1% BSA) as dilution buffer. Anti-human Fc (JIR009-005-098, Jackson) or anti-rat Fc (JIR112-005-071, Jackson) or anti-Mouse Fc (JIR115-005-071, Jackson) antibodies were immobilized on a Series S CM5 Sensor Chip (GE Healthcare) at pH 5.0 by using an amine coupling kit supplied by GE Healthcare. Anti-HLA-G antibodies were captured on the surface leading to a capturing response of 50-200 RU. HLA-G molecules were injected for 180 s at 30 μl/min with concentrations from 2.5 up to 800 nM (2×1:2 and 4×1:3 dilution series) onto the surface (association phase). The dissociation phase was monitored for 300-600 sec by washing with running buffer. […] Bulk refractive index differences were corrected by subtracting the response obtained from a mock surface. Blank injections were subtracted (double referencing). The derived curves were fitted to a 1:1 Langmuir binding model using the BIAevaluation software.
# The above table summarizes the antibody affinities and t1/2 values against wt and degrafted HLA-G as assessed by Surface plasmon resonance (Biacore) analysis. Binding kinetics of anti-HLA-G antibodies to human HLA-G, human HLA-G degrafted and human HLA-A2 were investigated by surface plasmon resonance using a BIACORE T200 instrument (GE Healthcare). All experiments were performed at 25° C. using PBS Buffer (pH 7.4+0.05% Tween20) as running buffer and PBS Buffer (+0.1% BSA) as dilution buffer. Anti-human Fc (JIR009-005-098, Jackson) or anti-rat Fc (JIR112-005-071, Jackson) or anti-Mouse Fc (JIR115-005-071, Jackson) antibodies were immobilized on a Series S CM5 Sensor Chip (GE
Binder,Kd,koff,kon,t ½
B1,6.75 nM,0.000882 s⁻¹,131000 M⁻¹ s⁻¹,13 min
B2,14.9 nM,0.00076 s⁻¹,51200 M⁻¹ s⁻¹,15 min
B3,31.5 nM,0.00165 s⁻¹,52300 M⁻¹ s⁻¹,7 min

# Biological target: T3, recombinant soluble human HLA-G β2M MHC …
# Test: competition ELISA, immobilised biotinylated wt HLA-G, competitor c-myc ILT4
# Protocol: The above table summarizes the blocking of interaction between rec. HLA-G proteins (monomer and oligomers) to its receptors ILT2 and ILT4 as assessed by ELISA.
# The ELISA was set up by coating the biotinylated antigen wt HLA-G to strepdavidin plates. After incubation and washing steps, the respective antibodies were bound in a concentration range from 8-0 μg in 1:3 dilution steps. C-myc tagged ILT-2 or -4 receptor was added to the HLA-G-antibody complexes. After incubation and washing steps, detection of bound receptor was carried out by anti-cmyc-antibody-POD conjugates. IC50 values were determined from the resulting inhibition curves at the antibody concentrations generating the half-maximal inhibition. In case of the non-biotinylated HLA-G dimer and trimer antigens, immobilization was carried out by random coating on assay plates.
row,Binder,% inh. ILT4
1,B1,41%
2,B2,43%
3,B3,44.6%
